Data published in the DeepSol protein solubility set.

Test: soluble on expression in E. coli; label from the status in PepcDB or PDB records

Sequence | soluble on expression in E. coli
MGSDKIHHHHHHTEMEPKFTEPVNINGEDYYKALREYKKSDHPIVFGWYSEWTGTGTNMNNQLRGIPDSMDIVSLWGGAFNLTEAQKSDLKEVREKKGLRVLYCQHITDIGRSHTPASVENDFIVDGVQYNSKDEAMAAYWGWYGNYGDTSEEGQEKAIRKYARVIIDSINKYNYDGFDIDFEPNFGYSGNLSGNSDRMHIFLDELSKEFGPKSGTGRILMVDGEPQTLNKESGPLLDYYVVQAYYCRSDEGYSDALDGRFDRLLNKFGSIEDEATILSKTVWCEDFEKHKGDGGPEFTTRDGIVTYSLKGMAMYYRPGVDARIGGVGAYRFNLCRPVNDYFFMREVIQVLNPANH | not soluble
MDYFNIFAYGELMKDEILFELINRVPEKNLGKIYNFEKFFDEKIGYYGIKPKENSSISGIILFNINSTELEIFDDYEDEGTYYSKNKTICYDLNGKGYESYVYVRLELEHHHHHH | not soluble
MRIRRRDEKENQEYKKGLWTVEEDNILMDYVLNHGTGQWNRIVRKTGLKRCGKSCRLRWMNYLSPNVNKGNFTEQEEDLIIRLHKLLGNRWSLIAKRVPGRTDNQVKNYWNTHLSKKLVGDYSSAVKTTGEDDDSPPSLFITAATPSSCHHQQENIYENIAKSFNGVVSASYEDKPKQELAQKDVLMATTNDPSHYYGNNALWVHDDDFELSSLVMMNFASGDVEYCL | not soluble
MGSDKIHHHHHHMKLSPTAQPFLHLHNLFILHQKVLVVKPMKELFPGLKRFRAYLNTAGLGLMPLTVYQKVNEFLLDVINYEDGINAVEILDELYFNPMLKKAAKLMKTNPENITVSLQTTDGLKRILTSLTPKKGMKIVSFDLEFPTISAILKSYAKRHGLEVKVIGNKGGLYYMEDVERVIDDNTFAVVFSDVQWITGQRMPTKEIAGVAHEHGAWVIVDAVQSLGALEVYPEKMEVDALVAGGEKWLLNPNTGSGVMWISEELIEVSEPILGLLNTQPEVPWSEWWGDERKDVWDILPVRKDARKLDPGTPPYVSIVALDASLELINSVGIEKIEKHDMKLAKRVREYAYELGVTALGSSQITLLRLGVDYVKQREIVKNLEEKGIVVSLRGAKGIFGIRVSPHLYNTEDDIVTLFDELSKFF | not soluble
MESKRNKPGKATGKGKPVGDKWLDDAGKDSGAPIPDRIADKLRDKEFKSFDDFRKAVWEEVSKDPELSKNLNPSAKSSVSKGYSPFTPKNQQVGGRKVYELHHDKPISQGGEVYDMDNIRVTTPKRHIDIHRGK | soluble
MFLTRSEYDRGVNTFSPEGRLFQVEYAIEAVKLGSTSIGIKTSEGVLLAAEKRSTSKLMVNDAIEKISKVDQHIGVTFAGLIADSRTLVERAQIEAQNFWFTYNRKIRVEDVTQSVANLALQFGDDDVKASMSRPFGVAMLFAGVDQEGAKLFHLDPSGTFIDCKAKSIGAASDGAEQNLKEQYHDALTIKEGLKMALAILKQVMEEKLNSANVEVVVIKPTVDAKGRPIGEFTRVSNEELDQVITSL | not soluble
NTLTSQIEQLQSLAHELLYLGVDGAPIYTDHFRQLNKEVLEQSDALYPQRGATPEEEANICLALLMGYNATIYNQGDKEEKKQVVLNRCWDVLDQLPATLLKCQLLTYCYGEVFE | not soluble
MSLSSMLPSISPELARIAPGFRALSINVIAAPVRDAQVGEIALKEACQAVINGQPAWAQAHIDAWNAVFKAFGAKPKRTPCSAEALRKRVLKDGTMAALDPVVDLYNAVSLRYAVPVGGENSAAYCGSPRLVFADGSETFDTLKEGKPVTESPEPGEVIWRDDRGVTCRRWNWRQGVRTRLSASDKMMWFILESLPEMPVDELYAAENMLTDGLEKMMPGLRFESTLIGVEGHHHHHH | not soluble
GSHMDINNKARIHWACRRGMRELDISIMPFFEHEYDSLSDDEKRIFIRLLECDDPDLFNWLMNHGKPADAELEMMVRLIQTRNRERGPVAI | soluble
MYKHILVPVDLNEQGFADKAVQLAVWHAKHSNAEIHLLNVLPGIHMSMVATYFPKDAAAQMKNDVRAQLKAFAEKHIAEEVVYKLHIAEGKPYATILDYAERLGADLIVMPSHKRSRIDKVMLGSVASKVVENSPINVMVVKPQG | not soluble
MPGIAIIGAQWGDEGKGKVVDVLAREADYVIRYQGGANAGHTVVAEGKVFKLNLLPSGVIHPHAVNVLGDGMVIDPFRFQEEVEGLRKEGFDPKILVSERAHLVLPHHKHVESRHNFVGTTGRGIGPAYSDRARRVGIRAGDLLDEATLRERVRRLLAEKPNSTREAGWDTEEKALADLHRMREILSPYIADTGSLLREAWRKGKRLLFEGAQATLLDLNYGTYPYVTSSHPTVGGILVGTGLSHKAITKVYGVAKAYTTRVGEGPFPTELQGELAHHLREKGGEYGTTTGRPRRVGWLDLVALRYACEVNGFDGLVLTKLDVLSGLEKVKVAVEYLDGARPGEASPEAVRYLELPGWGDLSHVKRREDLPANLLRYLELVEEHTGVPVVLFSTSPRREDTFGAVSWV | soluble
MKLLKVAAIAAIVFSGSALAGVVPQYGGGGGNHGGGGNNSGPNSELNIYQYGGGNSALALQADARNSDLTITQHGGGNGADVGQGSDDSSIDLTQRGFGNSATLDQWNGKDSHMTVKQFGGGNGAAVDQTASNSTVNVTQVGFGNNATAHQY | not soluble
ANNRAEVDTLSPAQAAELKPMPQSWRGVLPCADCEGIETSLFLEKDGTWVMNERYLGAREEPSSFASYGTWARTADKLVLTDSKGEKSYYRAKGDALEMLDREGNPIESQFNYTLEAAQSSLPMTPMTLRGMYFYMADAATFTDCATGKRFMVANNAELERSYLAARGHSEKPVLLSVEGHFTLEGNPDTGAPTKVLAPDTAGKFYPNQDCSSLGQMASMTGGQQMGHHHHHH | soluble
MIKIAITKGRIQKQVTKLLENADYDVEPILNLGRELQIKTKDDLQIIFGKPNDVITFLEHGIVDIGFVGKDTLDENDFDDYYELLYLKIGQCIFALASYPDFSNKNFQRHKRIASKYPRVTKKYFAQKQEDIEIIKLEGSVELGPVVGLADAIVDIVETGNTLSANGLEVIEKISDISTRMIVNKSSFKFKKDKIIEMVERLEDAQTN | soluble
MGSDKIHHHHHHMSNKLPALHLFGIFEAAARHENFKQAAAELFITPSAVSHQIKALEAFLGFELFQRKSRGVALNAAGKVYLHYVQQGINKLEQGTKIVSNKFSSPSLKISTFTTMASNVIIPTLSDFQQQHPTIDIRIETGMNLTDLRYDDCDLAIRMGKGDWPGVVVKKLLNLTAHAVCSAEFAKKHKLTSPEQISQVPLIDLANMNNIWRTWAGAMQLPEMQYQHKLTFGNYDASLQAAEQGLGLALAIMPIEHALIERNLLVLPFEKSTNFDQSLYAVYREEDQNRNDIHCFLDWLTQSPNLKPI | not soluble
GAMGSMNGIDDLLNINDRIKQVQNERNELASKLQNLKQSLASNDTEVALSEVIAQDIIEVGASVEGLEQLRAKYGDLQILNKLEKVAVQQTQMQAGVDKLDSFERQLDELAEQPPDQFTLDDVKALHSKLTSVFATVPQINNIDSQYAAYNKLKSKVTGKYNDVIIQRLATNWSNTFDQKLLEAQWDTQKFASTSVGLVKCLRENSTKLYQLSLLYLPLEEETQNGDSERPLSRSNNNQEPVLWNFKSLANNFNVRFTYHFHATSSSSKIETYFQFLNDYLAENLYKCINIFHDDCNGLTKPVIHEQFINYVLQPIRDKVRSTLFQNDLKTLIVLISQILATDKNLLNSFHYHGLGLVSLISDEVWEKWINYEVEMANRQFINITKNPEDFPKSSQNFVKLINKIYDYLEPFYDLDFDLLVRYKLMTCSLIFMNLTSSYLDYILTVDSLNETRTKEQELYQTMAKLQHVNFVYRKIKSLSSNFIFIQLTDIVNSTESKKYNSLFQNVENDYEKAMSTDMQNSIVHRIQKLLKETLRNYFKISTWSTLEMSVDENIGPSSVPSAELVNSINVLRRLINKLDSMDIPLAISLKVKNELLNVIVNYFTESILKLNKFNQNGLNQFLHDFKSLSSILSLPSHATNYKCMSLHELVKILKLKYDPNNQQFLNPEYIKTGNFTSLKEAYSIKYLKDTKIQDALYRIIYGNIL | soluble
MGSDKIHHHHHHMTENSRKTATELFEFLDGLGISHTTKQHEPVFTVAESQSLRDLIPGGHTKNLFVKDKKDQYFVLTVEENAVVDLKSVHKTIGAASRVSFGRPEKMLEYLGVVPGSVTVFGAINDTARQVTFVLDSDLLENELVNGHPLSNDQTTTIASKDLIRFLEATGHAPLVLKVSE | soluble
MFFKQFYDKHLSQASYLIGCQKTGEAMIIDPIRDLSSYIRVADEEGLTITHAAETHIHADFASGIRDVAIKLNASIYVSGESDDTLGYKNMPNQTHFVQHNDDIYVGNIKLKVLHTPGHTPESISFLLTDEGAGAQVPMGLFSGDFIFVGDIGRPDLLEKAVKVEGSSEIGAKQMFKSIESIKDLPNYIQIWPGHGAGSPCGKSLGAIPTSTLGYEKQTNWAFSENNEATFIDKLISDQPAPPHHFAQMKKINQFGMNLYQPYTVYPATNTNRLTFDLRSKEAYHGGHIEGTINIPYDKNFINQIGWYLNYDQEINLIGEYHLVSKATHTLQLIGYDDVAGYQLPQSKIQTRSIHSEDITGNESHILDVRNDNEWNNGHLSQAVHVPHGKLLETDLPFNRNDVIYVHCQSGIRSSIAIGILEHKGYHNIINVNEGYKDIHLSLEHHHHHH | soluble
MSVCLFLRFCSLRVRCRRLMCRPGEIIHIMWSALAWRWCAVMLTGSQRYAFCNDRFHNRKITRLRNNFMPNILPTDLCANTPTLAIHDNRGFAIRTLAYNRRDHNETIGELISRNRYNASGQLIASRDPRLEVDNFRYQYSLSGVPLRTDSVDSGSTLQLADSAGRTVLTLDAHHTRRWVEYETGEHSLGRPLSYHEQAKGGLKTVTDRFFYATNSEQDKSGNLNGQCVRHYDSAGLQALINQSIIGVPLQQQRRLLTNPKGPVDWFGEKENWGARLSEQPFVSHSTTDALGQLLTQTDAKGHIQRMAYNRAGQLIGSWLTIKNSAEQVILRSLTYSAAGQKLREESGNGVITEYRYEPQTQRLIGIKTTRPAKKDRPTRLQDLRYDYDPVGNILAIHNDAEATRFYRNQKIVPETTYRYDALYQLIEATGREADTNGIQNSQLPALASLNDSNQFVNYTRSYHYDRAGNLLKIQHTGASQYSTHITVSDSSNHGIQQQEGITARDIRSQFDAAGNQQQLQPGQPLRWNSRNQLQQVEPVPRNDGISDSESYLYDGGGSRVVKTSLHKTHNAIQTRSVIYLAGLELRSQYNGNNLTEDFQVITVGAAGRAQVRVLHWERGQPVDIVNDQLRYSFDNHLGSALIELDSDGDIISQEEYYPFGGTAVLASRNTVEAKYKTVRYSGKERDATGLYYYGYRYYQPWLGRWLSADPAGTIDGLNLYRMVRNNPVGLMDGDGLMTDKLLAKHEANFAKKNISSMAELKSEIEKLGLLPADSKQLFLHLNGGESDDEPSGSSGSSGSSEILENTSPHKIKNFHFISEINLATMPRPYYKDFSSTEDMLESAERLKAYGSIDTLLTLDLTSEDIPEFTSILADKGINYIAEKQYEIIDYFSEDELSSENIDRIVNMIKTIQNNNHKVGIHCAAGNGRSGLIATAMIINKKYTQSRINSFEEKNKLKEIIDKNKNEINVDAITYDAMKLVRKTNPFAGERTTDIKAAREYSRYLYSKQNR | not soluble
MSLDLHLTNKLALITGSTKGIGKAIAIEMAREGTDVIINGRNEAEVTKVVKEIQTMFPDTHPQAGTADISIESQRATLLEKFPKVDILVNNMGIFEPMEYWDIDDATWEKFFTVNVLSGNALAKAYLPKMLAQDFGRIIFIASEEAVMPSGEMPQYSMTKTMNLSLAKSLSNLTVGTHVTVNTVMPGSTLTEGVEKMLEDMYADSDIPKEDWEKDFMKNHRSRSQIQRLIRPEEIGRFVTFVASPDSSSFSGEALRIDGGLVPTIEGHHHHHH | soluble
